Experimental data published in paper PMC8408477.

Assays:
GST-RhPIF8 [1] = biological target: T1, GST-RhPIF8 (Rosa hybrida, UniProt A0A8K1NC13 1-452); test: competition
T1 sequence: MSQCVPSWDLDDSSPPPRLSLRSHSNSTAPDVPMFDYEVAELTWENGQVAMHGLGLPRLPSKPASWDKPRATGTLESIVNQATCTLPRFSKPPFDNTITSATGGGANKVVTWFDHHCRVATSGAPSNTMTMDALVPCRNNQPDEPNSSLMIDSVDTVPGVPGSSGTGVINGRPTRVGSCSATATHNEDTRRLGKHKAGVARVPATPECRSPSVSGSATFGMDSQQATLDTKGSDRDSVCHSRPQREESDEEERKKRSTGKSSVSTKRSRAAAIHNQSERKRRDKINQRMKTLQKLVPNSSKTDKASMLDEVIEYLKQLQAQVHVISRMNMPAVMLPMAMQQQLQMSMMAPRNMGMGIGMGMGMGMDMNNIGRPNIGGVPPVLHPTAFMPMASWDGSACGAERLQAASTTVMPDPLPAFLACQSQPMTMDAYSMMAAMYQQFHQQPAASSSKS

GST-RhPIF8 [2] = biological target: T1, GST-RhPIF8; test: EMSA
GST-RhBBX28 [3] = biological target: T2, GST-RhBBX28 (Rosa hybrida, UniProt A0A8K1NC92 1-241); test: competition
T2 sequence: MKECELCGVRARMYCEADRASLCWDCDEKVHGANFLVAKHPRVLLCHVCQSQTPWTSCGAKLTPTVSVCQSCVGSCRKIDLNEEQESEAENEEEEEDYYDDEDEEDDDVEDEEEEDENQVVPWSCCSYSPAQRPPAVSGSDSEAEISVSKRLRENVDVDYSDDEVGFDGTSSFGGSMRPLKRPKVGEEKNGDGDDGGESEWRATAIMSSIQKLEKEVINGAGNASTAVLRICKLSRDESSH

GST-RhBBX28 [4] = biological target: T2, GST-RhBBX28; test: EMSA
GST-RhBBX28 [5] = biological target: T2, GST-RhBBX28; test: EMSA; remark: listed apart in the source

B1: RhBBX28 mProbe (dsDNA)
DNA 1: GCCTAAAAAAAAACCACCATACCACAAAAAACCTGC
DNA 2: GCAGGTTTTTTGTGGTATGGTGGTTTTTTTTTAGGC
B1: no binding (GST-RhPIF8 [1]).

B2: RhBBX28 probe (dsDNA)
DNA 1: GCCTAACACATGGCCACCATACCACCACGACCCTGC
DNA 2: GCAGGGTCGTGGTGGTATGGTGGCCATGTGTTAGGC
B2: binds (GST-RhPIF8 [2]).

B3: RhSDH1 mProbe (dsDNA)
DNA 1: GTCAACTCCTAAAAAATCATGAGTCTTCTATAGGAATCAAAAAAAAACATTCTGCA
DNA 2: TGCAGAATGTTTTTTTTTGATTCCTATAGAAGACTCATGATTTTTTAGGAGTTGAC
B3: no binding (GST-RhBBX28 [3]).

B4: RhSDH1 probe (dsDNA)
DNA 1: GTCAACTCCTCACGTTTCATGAGTCTTCTATAGGAATCAACACGTTACATTCTGCA
DNA 2: TGCAGAATGTAACGTGTTGATTCCTATAGAAGACTCATGAAACGTGAGGAGTTGAC
B4: binds (GST-RhBBX28 [4]).

B5: RhSDH1 probe2 (dsDNA)
DNA 1: AGGTTTTGCAACTAGAAACGTGTTAGAAGAATAATCACAG
DNA 2: CTGTGATTATTCTTCTAACACGTTTCTAGTTGCAAAACCT
B5: no binding (GST-RhBBX28 [5]).
